Positions count from the first letter of the chain named. In names and notes the source's numbering stands. Each block holds one binder with its values, some of them ahead of it.
Experiments:
[1] = biological target: T1, Recombinant human/cynomolgus/rhesus macaque CD28 mouse IgG2a Fc fusion protein (Acro Biosystems) (human/cynomolgus/rhesus macaque, UniProt P10747 19-152); experiment: SPR Biacore T200, CD28-mIgG2a Fc on CM5
T1 construct: bought; also called huCD28

[2] = biological target: T2, CD28 on primary human T cells (human, UniProt P10747 19-220); experiment: cell-based or functional assay
[3] = biological target: T2, CD28 on primary human T cells; experiment: cell-based or functional assay; remark: listed apart in the source
[4] = biological target: T3, Recombinant human/Cynomolgus/Rhesus macaque CD28 Protein, His Tag (Acro Biosystems) (human/cynomolgus/rhesus macaque, UniProt P10747 19-152); experiment: SPR, v37634 captured on anti-human IgG Fc on CM5, CD28-his tag flowed
T3 construct: used only for v37634; also called CD28-his tag

Human CLDN18.2 = biological target: T4, Human CLDN18.2 (human); experiment: flow cytometry, SNU 601 cells
T4 construct: on transfected HEK293-6E cells or native on SNU 601 cells

[5] = biological target: T5, Recombinant human CD3 epsilon/delta heterodimer, his tag protein (Acro Biosystems) (human, UniProt P07766 23-126; P04234 22-105); experiment: SPR Biacore T200, CD3 e/d-his on CM5, construct injected, 1:1 model;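 further: measured at 25 °C in HEPES-buffered saline with EDTA and Tween 20 at pH 7.4, values are means of three independent runs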
T5 construct: bought

[6] = biological target: T2, CD28 on primary human T cells; experiment: cell-based or functional assay; remark: listed apart in the source
[7] = biological target: T2, CD28 on primary human T cells; experiment: cell-based or functional assay; remark: listed apart in the source
[8] = biological target: T1, Recombinant human/cynomolgus/rhesus …; experiment: SPR Biacore T200, CD28-mIgG2a Fc on CM5, construct injected, 1:1 model;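 further: fc fusion captured by amine coupling, run at 25 °C in HEPES buffer pH 7.4, association 140-500 s then dissociation 600-1200 s, values averaged over three independent runs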
Experimental: All SPR binding experiments were carried out using a BiacoreT200 instrument at 25° C. with 10 mM HEPES, 150 mM NaCl, 3 mM EDTA, and 0.05% Tween 20 at pH 7.4. Recombinant human/cynomolgus/rhesus macaque CD28 mouse IgG2a Fc fusion protein (Acro Biosystems) was covalently immobilized on CM5 sensor chips by amine coupling. Purified antibody constructs to be tested were injected on the sensor chip at 30 μL/min for 140-500 s following a dissociation for 600-1200 s. Resultant kₒₙ, koff and KD values were determined from fitting the sensorgrams using the 1:1 binding model with reported values as the mean of three independent runs.

[9] = biological target: T2, CD28 on primary human T cells; experiment: cell-based or functional assay; remark: listed apart in the source
[10] = biological target: T1, Recombinant human/cynomolgus/rhesus …; experiment: SPR, in-format anti-CD28 variants, huCD28

- binding result [1]: no binding
- IL-2 maximum cytokine, T cells alone [3]: 243 pg/mL
- IL-2 maximum cytokine, T cells with SNU 601 cells [3]: 2700 pg/mL
- TNFa maximum cytokine, T cells alone [3]: 23 pg/mL
- TNFa maximum cytokine, T cells with SNU 601 cells [3]: 518 pg/mL
B1: v37690 (trispecific antibody, human IgG1, kappa, L234A L235A)
heavy 1: not shown
heavy 2: QVQLVESGGGLVQPGGSLRLSCSVSGIDLSSNPMIWVRQAPGKGLQYIGIIDTDGSTYYADWAKGRFTISKDSTTVYLQINSPRAEDTAVYYCARRLHGSSNGYYDDLWGQGTLVTVSSGGGGSGGGGSGGGGSGGGGSDGQMTQSPSSVSASVGDRVTITCQASQSIYSYLSWYQQKPGQRPKLLIYKASTLASGVPSRFSGSGSGTDFTLTISSVQPEDFATYYCQQGYTVTNVDKNTFGGGTKVEIKAAEPKSSDKTHTCPPCPAPEAAGGPSVFLFPPKPKDTLMISRTPEVTCVVVSVSHEDPEVKFNWYVDGVEVHNAKTKPREEQYNSTYRVVSVLTVLHQDWLNGKEYKCKVSNKALPAPIEKTISKAKGQPREPQVYVLPPSRDELTKNQVSLLCLVKGFYPSDIAVEWESNGQPENNYLTWPPVLDSDGSFFLYSKLTVDKSRWQQGNVFSCSVMHEALHNHYTQKSLSLSPG
light: DIQMTQSPSSLSASVGDRVTITCRASESVEYYVTSLMQWYQQKPGKAPKLLIYAASNVDSGVPSRFSGSGSGTDFTLTISSLQPEDIATYYCQQSRKVPFTFGGGTKVEIKRTVAAPSVFIFPPSDEQLKSGTASVVCLLNNFYPREAKVQWKVDNALQSGNSQESVTEQDSKDSTYSLSSTLTLSKADYEKHKVYACEVTHQGLSSPVTKSFNRGEC
notes: also called v37638 format, CD28 VH Y1112S
- IC50, T cell-dependent cytotoxicity on SNU 601 [2]: 0.00121 nM
- Maximum Killing (%), SNU 601 [2]: 92.3%

- Kd [4]: 258 nM
- koff [4]: 0.00187 s⁻¹
- kon [4]: 7230 M⁻¹ s⁻¹
- Bmax (Human CLDN18.2): 6840 MFI
- EC50 (Human CLDN18.2): 27.2 nM
- Kd [5]: 77.6 nM
- koff [5]: 0.0123 s⁻¹
- kon [5]: 163000 M⁻¹ s⁻¹
B2: v37634 (trispecific antibody, human IgG1, lambda, L234A L235A)
heavy 1: not shown
heavy 2: B1 heavy 2
light: NFMLTQPHSVSESPGKTVTISCKRNTGNIGSNYVNWYQQHEGSSPTTIIYRNDKRPDGVSDRFSGSIDRSSKSASLTISNLKTEDEADYFCQSYSSGFIFGGGTKLTVLGQPKAAPSVTLFPPSSEELQANKATLVCLISDFYPGAVTVAWKADSSPVKAGVETTTPSKQSNNKYAASSYLSLTPEQWKSHRSYSCQVTHEGSTVEKTVAPTECSGGGGSGDIQMTQSPSSLSASVGDRVTITCRASESVEYYVTSLMQWYQQKPGKAPKLLIYAASNVDSGVPSRFSGSGSGTDFTLTISSLQPEDIATYYCQQSRKVPFTFGGGTKVEIKGGGGSGGGGSGGGGSGGGGSQVQLQESGPGLVKPSETLSLTCAVSGFSLTSYGVHWIRQPPGKGLEWLGVIWPGGGTNFNSALMSRLTISEDTSKNQVSLKLSSVTAADTAVYYCARDRAYGNYLYAMDYWGQGTLVTVSS
notes: CD28 scFv on C-terminus of the CD3 Fab light chain; Het Fc, FcKO; also called CD3xCD28xCldn18.2 trispecific

- IC50, TDCC on SNU 601-RFP, 1:5 E:T [6]: 0.0023 nM
- IC50, TDCC on SNU 601-RFP, 2:1 E:T [6]: 0.000166 nM
- IFNg EC50, T cells + SNU 601 [7]: 0.00367 nM
- IFNg maximum cytokine, T cells + SNU 601 [7]: 3040 pg/mL
- IL-2 EC50, T cells + SNU 601 [7]: 0.00267 nM
- IL-2 maximum cytokine, T cells + SNU 601 [7]: 5060 pg/mL
- Kd [8]: 20.2 nM
- koff [8]: 0.00198 s⁻¹
- kon [8]: 98200 M⁻¹ s⁻¹
- IFNg mean cytokine, T cells alone, 45 nM construct [9]: 857 pg/mL
- IL-2 mean cytokine, T cells alone, 45 nM construct [9]: 2930 pg/mL
- Bmax (Human CLDN18.2): 9310 MFI
- EC50 (Human CLDN18.2): 24.1 nM
- Fold-change from WT [10]: 1 fold
- Kd [10]: 42.3 nM
- koff [10]: 0.00286 s⁻¹
- kon [10]: 70400 M⁻¹ s⁻¹
- Kd [5]: 62 nM
- koff [5]: 0.0117 s⁻¹
- kon [5]: 189000 M⁻¹ s⁻¹
B3: v37642 (trispecific antibody, human IgG1, kappa, L234A L235A)
heavy 1: not shown
heavy 2: EVQLVESGGGLVQPGGSLRLSCAASGVTFNYYGMSWIRQAPGKGLEWVASITSSGGRIYYPDSVKGRFTISRENTQKTLYLQMNSLRAEDTAVYYCTLDGRDGWVAYWGQGTLVTVSSGGGGSGGGGSGGGGSGGGGSNFMLTQPHSVSESPGKTVTISCKRNTGNIGSNYVNWYQQHEGSSPTTIIYRNDKRPDGVSDRFSGSIDRSSKSASLTISNLKTEDEADYFCQSYSSGFIFGGGTKLTVLAAEPKSSDKTHTCPPCPAPEAAGGPSVFLFPPKPKDTLMISRTPEVTCVVVSVSHEDPEVKFNWYVDGVEVHNAKTKPREEQYNSTYRVVSVLTVLHQDWLNGKEYKCKVSNKALPAPIEKTISKAKGQPREPQVYVLPPSRDELTKNQVSLLCLVKGFYPSDIAVEWESNGQPENNYLTWPPVLDSDGSFFLYSKLTVDKSRWQQGNVFSCSVMHEALHNHYTQKSLSLSPG
light: B1 light
notes: also called Cldn18.2xCD28xCD3 trispecific
- Maximum Mean Cytotoxicity (%), 1:5 E:T [6]: 96.9%
- Maximum Mean Cytotoxicity (%), 2:1 E:T [6]: 98.7%

- IC50, TDCC on SNU 601-RFP, 1:5 E:T [6]: 0.0127 nM
- IC50, TDCC on SNU 601-RFP, 2:1 E:T [6]: 0.000838 nM
- IFNg EC50, T cells + SNU 601 [7]: 0.0909 nM
- IFNg maximum cytokine, T cells + SNU 601 [7]: 6150 pg/mL
- IL-2 EC50, T cells + SNU 601 [7]: 0.0222 nM
- IL-2 maximum cytokine, T cells + SNU 601 [7]: 9620 pg/mL
- IFNg mean cytokine, T cells alone, 45 nM construct [9]: 15.4 pg/mL
- IL-2 mean cytokine, T cells alone, 45 nM construct [9]: 26.5 pg/mL
- Fold-change from WT [10]: 6.1 fold
- Kd [10]: 257 nM
- koff [10]: 0.0145 s⁻¹
- kon [10]: 62900 M⁻¹ s⁻¹
B4: v38991 (trispecific antibody, human IgG1, kappa, L234A L235A)
heavy 1: not shown
heavy 2: B3 heavy 2
light: B1 light
notes: also called v37642 format, CD28 VH N1111aA
- Maximum Mean Cytotoxicity (%), 1:5 E:T [6]: 95.6%
- Maximum Mean Cytotoxicity (%), 2:1 E:T [6]: 98.2%

- IC50, TDCC on SNU 601-RFP, 1:5 E:T [6]: 0.145 nM
- IC50, TDCC on SNU 601-RFP, 2:1 E:T [6]: 0.00358 nM
- IFNg EC50, T cells + SNU 601 [7]: 0.604 nM
- IFNg maximum cytokine, T cells + SNU 601 [7]: 3290 pg/mL
- IL-2 EC50, T cells + SNU 601 [7]: 1.56 nM
- IL-2 maximum cytokine, T cells + SNU 601 [7]: 5240 pg/mL
- IFNg mean cytokine, T cells alone, 45 nM construct [9]: 0.9 pg/mL
- IL-2 mean cytokine, T cells alone, 45 nM construct [9]: 1.8 pg/mL
- Fold-change from WT [10]: 225 fold
- Kd [10]: 9510 nM
B5: v38990 (trispecific antibody, human IgG1, kappa, L234A L235A)
heavy 1: not shown
heavy 2: B3 heavy 2
light: B1 light
notes: also called v37642 format, CD28 VH Y1113S
- Maximum Mean Cytotoxicity (%), 1:5 E:T [6]: 95.4%
- Maximum Mean Cytotoxicity (%), 2:1 E:T [6]: 97.8%

- binding result [1]: no binding
- IL-2 maximum cytokine, T cells alone [3]: 29.9 pg/mL
- IL-2 maximum cytokine, T cells with SNU 601 cells [3]: 226 pg/mL
- TNFa maximum cytokine, T cells alone [3]: 12.9 pg/mL
- TNFa maximum cytokine, T cells with SNU 601 cells [3]: 166 pg/mL
B6: v37694 (trispecific antibody, human IgG1, kappa, L234A L235A)
heavy 1: not shown
heavy 2: B1 heavy 2
light: B1 light with Y31A
notes: also called v37638 format, CD28 VL Y1031A
- IC50, T cell-dependent cytotoxicity on SNU 601 [2]: 0.00144 nM
- Maximum Killing (%), SNU 601 [2]: 93.1%

— patent publication US20260028403A1 (Zymeworks, published 2026)
